Data: patent US20260139017A1, “COMPOSITIONS AND METHODS USING REELIN IN ALZHEIMER'S DISEASE” (The General Hospital Corporation, priority 2022, published 2026)

B1: IL2ss-6xHis-hReelin R3-R6 CT-H3447R (protein)
chain: MYRMQLLSCIALSLALVTNSGGHHHHHHGGSRFSSTAPVLLQYSHDAGMSWFLVKEGCYPASAGKGCEGNSRELSEPTMYHTGDFEEWTRITIVIPRSLASSKTRFRWIQESSSQKNVPPFGLDGVYISEPCPSYCSGHGDCISGVCFCDLGYTAAQGTCVSNVPNHNEMFDRFEGKLSPLWYKITGAQVGTGCGTLNDGKSLYFNGPGKREARTVPLDTRNIRLVQFYIQIGSKTSGITCIKPRTRNEGLIVQYSNDNGILWHLLRELDFMSFLEPQIISIDLPQDAKTPATAFRWWQPQHGKHSAQWALDDVLIGMNDSSQTGFQDKFDGSIGGGTLDSRKWLLHPGGTKMPVCGSTGDALVFIEKASTRYVVSTDVAVNEDSFLQIDFAVSCSVTDSCYAIELEYSVDLGLSWHPLVRDCLPTNVECSRYHLQRILVSDTFNKWTRITLPLPPYTRSQATRFRWHQPAPFDKQQTWAIDNVYIGDGCIDMCSGHGRCIQGNCVCDEQWGGLYCDDPETSLPTQLKDNFNRAPSSQNWLTVNGGKLSTVCGAVASGMALHFSGGCSRLLVTVDLNLTNAEFIQFYFMYGCLITPNNRNQGVLLEYSVNGGITWNLLMEIFYDQYSTGGSGGSTRKQNYMMNFSRQHGLRRFYNRRRRSLRRYP
B2: Il2ss-flagMini-RELNFspCR50R5-6CtermH3447R (protein)
chain: MYRMQLLSCIALSLALVTNSGGDYKDDDDKTGGAAGYYPRFSPFFFLCTHHGELEGDGEQGEVLISLHIAGNPTYYVPGQEYHVTISTSTFFDGLLVTGLYTSTSVQASQSIGGSSAFGFGIMSDHQFGNQFMCSVVASHVSHLPTTNLSFIWIAPPAGTGCVNFMATATHRGQVIFKDALAQQLCEQGAPTDVTVHPHLAEIHSDSIILRDDFDSYHQLQLNPNIWVECNNCETGEQCGAIMHGNAVTFCEPYGPRELITTGLNTTTASVLQFSIGSGSCRFSYSDPSIIVLYAKNNSADWIQLEKIRAPSNVSTIIHILYLPEDAKGENVQFQWKQENLRVGEVYEACWALDNILIINGSRGGQTNATRFRLWQPYNNGKKEEIWIVDDFIIDGNNVNNPVMLLDTFDFGPREDNWFFYPGGNIGLYCPYSSKGAPEEDSAMVFVSNEVGEHSITTRDLNVNENTIIQFEINVGCSTDSSSADPVRLEFSRDFGATWHLLLPLCYHSSSHVSSLCSTEHHPSSTYYAGTMQGWRREVVHFGKLHLCGSVRFRWYQGFYPAGSQPVTWAIDNVYIGPQCEEMCNGQGSCINGTKCICDPGYSGPTCKISTKNPDFLKDDFEGQLESDRFLLMSGGKPSRKCGILSSGNNLFFNEDGLRMLMTRDLDLSHARFVQFFMRLGCGKGVPDPRSQPVLLQYSLNGGLSWSLLQEFLFSNSSNVGRYIALEIPLKARSGSTRLRWWQPSENGHFYSPWVIDQILIGGNISGNMVLEDDFTTLDSRKWLLHPGGTKMPVCGSTGDALVFIEKASTRYVVSTDVAVNEDSFLQIDFAVSCSVTDSCYAIELEYSVDLGLSWHPLVRDCLPTNVECSRYHLQRILVSDTFNKWTRITLPLPPYTRSQATRFRWHQPAPFDKQQTWAIDNVYIGDGCIDMCSGHGRCIQGNCVCDEQWGGLYCDDPETSLPTQLKDNFNRAPSSQNWLTVNGGKLSTVCGAVASGMALHFSGGCSRLLVTVDLNLTNAEFIQFYFMYGCLITPNNRNQGVLLEYSVNGGITWNLLMEIFYDQYSKPGFVNILLPPDAKEIATRFRWWQPRHDGLDQNDWAIDNVLISGSASTRKQNYMMNFSRQHGLRRFYNRRRRSLRRYP

What was measured:
[1] = system: pDAB1 (Tyr232); test: HRECs treated 5 minutes with recombinant mini-RELN, pDAB1 western blot; assay type: cell-based, human; conditions: 5 minutes, 4 ug/mL recombinant protein
Method: For in vitro screening of constructs using recombinant mini-RELN on HRECs, the cells were cultured in EBM-2 media enriched with EGM-2 Single Quots (Lonza) at 37° C. and 5% CO2 and experimentally tested at passage 7. 24 h prior experiment, cells were plated on a 6-well plate at 500,000 cells/mL. Two hours before the experiment, the cells were washed with PBS to remove residual growth media and then incubated with a starving media including EBM-2, 1% GlutaMax+0.2% Normicin. Treatments was conducted using recombinant mini RELN constructs obtained from Innovagen and Recombinant Mouse Reelin Protein from R&D systems (3820-MR-025/CF). Each treatment was incubated for 5 minutes at 4 ug/mL concentration and cells were subsequently harvested in lysis buffer was applied constituted of RIPA (Cell signaling), proteases inhibitors (cOmplete™, Mini, EDTA-free Protease Inhibitor Cocktail, Roche), phosphatases inhibitors (PhosSTOP, Roche), 1 μL of proteasome inhibitor MG-132 10 mM, 1% Triton X 100. The lysates were scraped and centrifugated at 15000 rpm for 10 minutes at 4° C. Total protein levels were quantified via BCA assay. For Western Blotting, 3.5 ug protein homogenates were prepared under reducing and denaturing conditions using Laemmli buffer enriched with 10 mM DTT and 5 min boiling. Samples were electrophoretically separated in a 4-20% Gel at 90V and protein transferred to a PVDF membrane using iBlot™ 2 Dry Blotting System. The membrane was blocked using Intercept® (TBS) Blocking Buffer for 2 hours. We detected pDAB1 (Tyr232; 1:1000, rabbit, #3325 Cell signaling), and total protein staining (Licor). Antibodies were diluted using Intercept® (TBS) Blocking Buffer and incubated overnight at 4C under gentle shaking. Prior secondary antibody incubation, membranes were washed 2 times using TBS-T for 10 minutes. As secondary antibodies we used IR Dye 800n CW Goat-anti-Rabbit (925-32211, Licor) diluted 1:10000 in blocking buffer for 1 h at room temperature under gentle shaking. Membranes were washed three times with TBST-T prior IR detection using Odyssey imager. To quantify the results, each band was quantified using ImageJ and data expressed as pDABL:total protein ratio normalized to the control.

[2] = system: pDAB1 (Tyr232); test: HRECs treated 5 minutes with HEK 293T-derived mini-RELN media, pDAB1 western blot; assay type: cell-based, human; conditions: HEK 293T-derived media 1:1, 1:4, 1:14, 5 minutes
Method: The effect of in vitro treatment with RELN or miniRELN protein was also evaluated. HRECs were cultured in EBM-2 media enriched with EGM-2 Single Quots (Lonza) at 37° C. and 5% CO2 and experimentally tested at passage 7. 24 h prior experiment, cells were plated on a 6-well plate at 500,000 cells/mL. Two hours before the experiment, the cells were washed with PBS to remove residual growth media and then incubated with a starving media including EBM-2, 1% GlutaMax+0,2% Normicin. Treatments was conducted using media derived from HEK 293T cells transiently transfected for 24 h with different mini-RELN constructs in the presence of Lipofectamine 2000. HEK-derived Lipofectamine2000-media was used as negative control. HEK 293T-derived media was tested at different ratio 1:1, 1:4, and 1:14 (Transfected media:Starving media). Each treatment was incubated for 5 minutes and cells were subsequently harvested in lysis buffer was applied constituted of RIPA (Cell signaling), proteases inhibitors (cOmplete™, Mini, EDTA-free Protease Inhibitor Cocktail, Roche), phosphatases inhibitors (PhosSTOP, Roche), 1 μL of proteasome inhibitor MG-132 10 mM, 1% Triton X 100. The lysates were scraped and centrifugated at 15000 rpm for 10 minutes at 4° C. Total protein levels were quantified via BCA assay. […] We detected pDAB1 (Tyr232; 1:1000, rabbit, #3325 Cell signaling), and Beta actin (1:5000, mouse, #66009-1-Ig, Proteintech. Antibodies were diluted using Intercept® (TBS) Blocking Buffer and incubated overnight at 4C under gentle shaking. Prior secondary antibody incubation, membranes were washes 2 times using TBS-T for 10 minutes. As secondary antibodies we used IR Dye 800n CW Goat-anti-Rabbit (925-32211, Licor) and IR Dye 680 CW Goat-anti-Mouse (925-68070, Licor) both diluted 1:10000 in blocking buffer for 1 h at room temperature under gentle shaking. Membranes were washed three times with TBS-T prior IR detection using Odyssey imager. To quantify the results, each band was quantified using ImageJ and data expressed as pDAB1:βActin ratio normalized to the control. […]

| Molecule | pDAB1 levels [1] | pDAB1 / Dab1 signaling activation [2] |
| --- | --- | --- |
| B1 | increased pDAB1 levels | efficacy |
| B2 | – | more robust compared to controls and compared to 233A |
